B1: M. tuberculosis AccA1 (Rv2501c) (natural protein)
chain: MFDTVLVANRGEIAVRVIRTLRRLGIRSVAVYSDPDVDARHVLEADAAVRLGPAPARESYLDIGKVLDAAARTGAQAIHPGYGFLAENADFAAACERARVVFLGPPARAIEVMGDKIAAKNAVAAFDVPVVPGVARAGLTDDALVTAAAEVGYPVLIKPSAGGGGKGMRLVQDPARLPEALVSARREAMSSFGDDTLFLERFVLRPRHIEVQVLADAHGNVVHLGERECSLQRRHQKVIEEAPSPLLDPQTRERIGVAACNTARCVDYVGAGTVEFIVSAQRPDEFFFMEMNTRLQVEHPVTEAITGLDLVEWQLRVGAGEKLGFAQNDIELRGHAIEARVYAEDPAREFLPTGGRVLAVFEPAGPGVRVDSSLLGGTVVGSDYDPLLTKVIAHGADREEALDRLDQALARTAVLGVQTNVEFLRFLLADERVRVGDLDTAVLDERSADFTARPAPDDVLAAGGLYRQWALARRAQGDLWAAPSGWRGGGHMAPVRTAMRTPLRSETVSVWGPPESAQVQVGDGEIDCASVQVTREQMSVTISGLRRDYRWAEADRHLWIADERGTWHLREAEEHKIHRAVGARPAEVVSPMPGSVIAVQVESGSQISAGDVVVVVEAMKMEHSLEAPVSGRVQVLVSVGDQVKVEQVLARIKD
notes: also called BC α-subunit of the M. tuberculosis MCC

Tests used:
[1] = molecular target: the molecule itself; experiment: negative-stain electron microscopy
[2] = molecular target: B1; experiment: pull-down; details: partners not purified

Row | Binder | stoichiometry N [1] | binding result [2]
1 | B1 | 3 | –
2 | M. tuberculosis AccD1 (Rv2502c), hexa-histidine tagged (natural protein, also called CT β-subunit of the M. tuberculosis MCC; not shown: His6, N-terminal, kept) MTTPSIAIAPSFADEHRRLVAELNNKLAAAALGGNERARKRHVSRGKLLPRERVDRLLDPGSPFLELAPLAAGGMYGDESPGAGIITGIGRVSGRQCVIVANDATVKGGTYYPMTVKKHLRAQEVALQNMLPCIYLVDSGGAFLPRQDEVFPDREHFGRIFYNQATMSAKGIPQVAAVLGSCTAGGAYVPAMSDEAVIVREQGTIFLGGPPLVKAATGEIVSAEELGGGDLHSRTSGVTDHLADDDEDALRIVRAIADTFGPCEPAQWDVRRSVEPKYPQAELYDVVPPDPRVPYDVHEVVVRIVDGSEFSEFKAKYGKTLVTAFARVHGHPVGIVANNGVLFSESALKGAHFIELCDKRKIPLLFLQNIAGFMVGRDYEAGGIAKHGAKMVTAVACARVPKLTVVIGGSYGAGNYSMCGRAYSPRFLWMWPNARISVMGGEQAASVLATVRGEQLSAAGTPWSPDEEEAFKAPIRAQYEDQGNPYYSTARLWDDGIIDPADTRTVVGLALSLCAHAPLDQVGYGVFRM | 6 | binds

Source: paper PMC4347857, “Characterization of the Mycobacterial Acyl-CoA Carboxylase Holo Complexes Reveals Their Functional Expansion into Amino Acid Catabolism” (PLoS Pathogens, 2015)
